# In patent US7790845B2, “Bacterial ion channel” (Children's Medical Center Corporation, priority 2001, dated 2010):
# Like-named read-outs stand apart in the source and are kept apart here.
# B1: NaChBac: bacterial voltage-sensitive Na+-selective ion channel from Bacillus halodurans, 274 amino acids, SEQ ID NO: 1; pore residues 190-195 LESWAS (protein)
# chain: MKMEARQKQNSFTSKMQKIVNHRAFTFTVIALILFNALIVGIETYPRIYADHKWLFYRIDLVLLWIFTIEIAMRFLASNPKSAFFRSSWNWFDFLIVAAGHIFAGAQFVTVLRILRVLRVLRAISVVPSLRRLVDALVMTIPALGNILILMSIFFYIFAVIGTMLFQHVSPEYFGNLQLSLLTLFQVVTLESWASGVMRPIFAEVPWSWLYFVSFVLIGTFIIFNLFIGVIVNNVEKAELTDNEEDGEADGLKQEISALRKDVAELKSLLKQLK
# modifications: Bacillus Halodurans
# notes: pore residues 190-195 LESWAS
# Assays:
# CHO-K1 or COS-7 cells = experiment: Single channel properties of NaChBac, inside-out patch; type: cell-based
# Text: The single channel properties of NaChBac were studied in the inside-out patch configuration. Solutions were the same as used in whole-cell recording except that the pipette and bath solutions were reversed. The unitary single channel conductance was best fit with a slope of 12 pS±1 pS (n=7 cells). Consistent with the whole-cell current, single channels were activated by depolarization and both open and closed times varied as a function of voltage (not shown). An ensemble average of single channel currents from 5 cells resembled whole cell INaChBac with τact=10±3.5 ms and τinact=203±43 ms (FIG. 2D).
# [1] = test system: CHO-K1 cells or COS-7 cells; experiment: Ca2+/Na+ selectivity of wt and mutant NaChBac, reversal potential under bi-ionic conditions (Example 2); type: cell-based
# Procedure: Unless otherwise stated, the pipette solution contained (in mM); 147 Cs, 120 methanesulfonate, 8 NaCl, 10 EGTA, 2 Mg^2+-adenosine triphosphate, and 20 HEPES (pH 7.4). Bath solution contained (in mM); 140 NaCl, 10 CaCl2, 5 KCl, 10 HEPES (pH 7.4), and 10 glucose. For some experiments, NaCl was isotonically replaced by CaCl2.
# For reversal potential measurements to determine the relative permeabilities of Na^+ and Ca^2+, the internal pipette solution contained (in mM): 100 mM Na-Gluconate, 10 NaCl, 10 EGTA, 20 HEPES-Na (pH 7.4 adjusted with NaOH, [Na^+]total=140). The external solution was (in mM): 140 NMDG-Cl, 10 CaCl2, 20 HEPES (pH 7.4 adjusted with HCl) or 80 NMDG-Cl, 50 CaCl2, and 20 HEPES. The fast kinetics and small current amplitude of SKM1 in 10 mM [Ca^2+]o necessitated the use of 50 mM [Ca^2+]o for accurate determination of Erev. The permeability ratio of Ca2+ was estimated according to the following equation: PCa/Px=asi(exp(ErevF/RT)[(exp(ErevF/RT)+1]/(4ase) where R, T, F, and Erev are the gas constant, absolute temperature, Faraday constant, and reversal potential, respectively, and x represents Cs^+ or Na^+ (i, internal; e, external) (Hille 2001). For calculations of membrane permeability, activity coefficients for Ca^2+, Cs^+ and Na^+ were estimated as follows: as=γs[Xs] where activity, as, is the effective concentration of an ion in solution, s related to the nominal concentration [Xs] by the activity coefficient, γs·γs was calculated from the Debye-Hückel equation: log γs=−0.51*zs^2√μ/[1+3.8ασ√μ] where μ is the ionic strength of the solution, zs is the charge on the ion, and αs is the effective diameter of the hydrated ion in nanometers (nm). The calculated activity coefficients were γ(Cs)i=0.70, γ(Ca)e=0.331, γ(Na)i=0.75 and γ(Na)e=0.73. The liquid junction potentials were measured using a salt bridge as described by Neher (Neher 1992) and these measurements agreed within 3 mV to those calculated by the JPCalc program (P. Barry) within Clampex (Axon Instruments, Union City, Calif.).
# Reversal potentials of the NaChBac mutants were measured under bi-ionic conditions as described in the Methods. […] The average peak current amplitude measured at 0 mV obtained in 10 mM Ca^2+ Tyrode's solution or in 105 mM Ca^2+ solution is shown in FIG. 7B and normalized to the current amplitude measured in 10 mM Ca^2+ solution (FIG. 7C).
# Relative permeability (PCa/PNa) was calculated as described in the Methods and Table 1. Since PCa/PNa had not been described for native Nav channels under these specific conditions, we also measured the relative permeability for SKM1, a skeletal muscle Na^+-selective channel (SKM1; Kraner, Rich et al. 1998) was expressed in COS and CHO cells and examined under identical conditions as NaChBac and similar to its mutants; Table 1).
molecule,measurement,setting,value
B1,τact of ensemble average of single channel currents,CHO-K1 or COS-7 cells; 5 cells,10 ± 3.5 ms
same,τinact of ensemble average of single channel currents,CHO-K1 or COS-7 cells; 5 cells,203 ± 43 ms
same,unitary single channel conductance,"CHO-K1 or COS-7 cells; inside-out patch, n=7 cells",12 pS
same,current in 10 mM Ca2+/NMDG solution compared to 10 mM Ca2+ solution with Na+,[1],almost undetectable
same,current on replacing 140 mM Na+/10 mM Ca2+ solution by isotonic (105 mM) Ca2+ solution,[1],practically undetectable
same,PCa/PNa,"[1]; external solution 80 NMDG-Cl, 50 CaCl2, 20 HEPES, listed as wt NaChBac",0.15
same,current in 10 mM Ca2+/NMDG solution compared to 10 mM Ca2+ solution with Na+,[1]; listed as wt NaChBac,virtually eliminated
